Target: L. pneumophila CdgS9 periplasmic output domain (CdgS9^Output, residues 22-152) (L. pneumophila)
Experiment: […]; 25 mM Tris-HCl pH 7.4, 100 mM NaCl, 25°C; […]

Row | Substance | stoichiometry N | stoichiometry N (CdgS9^Output chains per LapG (2:1))
1 | L. pneumophila CdgS9 periplasmic output domain (CdgS9^Output, residues 22-152) (domain or fragment) | 2 | 
2 | L. pneumophila LapG (enzyme) |  | 2
